For one test, the target named is H3K9me3 peptide. Description: fluorescence polarization, FITC-peptide 0.5 nM.
In test [1] the target is H3K4me3 (mouse). The experiment in a line: ChIP-seq of the EGFP control in mESCs, correlation with antibody ChIP-seq of the mark, 1-kb bins on chromosome 19.
Test [2] concerns the target H3K9me3-marked histone H3 in chromatin of mouse embryonic stem cells (mouse). Described as above.
Test [3] has as its target H3K27me3-marked histone H3 in chromatin of mouse embryonic stem cells (mouse). The description is as above.
Test [4] concerns the target H3K4me3 (mouse). The experiment in a line: ChIP-seq of the EGFP control in mESCs, correlation with antibody ChIP-seq of the mark, counts at 1-kb intervals.
The target of test [5] is H3K9me3-marked histone H3 in chromatin of mouse embryonic stem cells (mouse). The test is described as above.
For test [6], the target named is H3K27me3-marked histone H3 in chromatin of mouse embryonic stem cells (mouse). The description is as above.

The Kd is the equilibrium constant for the complex coming apart.

Cbx1.wt chromodomain (tags removed), P83916 17-79, sequence (P83916 17-79 limits assumed): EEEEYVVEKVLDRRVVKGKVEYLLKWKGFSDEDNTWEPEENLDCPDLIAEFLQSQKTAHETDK
Cbx5.wt chromodomain (tags removed), P45973 17-78, sequence (P45973 17-78 limits assumed): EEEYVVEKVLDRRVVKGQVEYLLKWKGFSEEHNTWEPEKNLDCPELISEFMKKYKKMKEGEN
Cbx3.wt chromodomain (tags removed), Q13185 23-81, sequence (Q13185 23-81 limits assumed): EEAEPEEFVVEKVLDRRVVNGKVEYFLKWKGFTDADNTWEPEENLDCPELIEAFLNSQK

As for “Cbx1.wt chromodomain (tags removed), P83916 17-79”, the dissociation constant (Kd) with H3K9me3 peptide was determined as 0.5 µM. This counts as sub-micromolar.

“Cbx3.wt chromodomain (tags removed), Q13185 23-81” had a Kd with H3K9me3 peptide of 2 µM.

With “Cbx5.wt chromodomain (tags removed), P45973 17-78”, the dissociation constant Kd with H3K9me3 peptide came to 5 µM.

In the case of EGFP, the Pearson correlation with H3K4me3 (mouse) [1] is 0.2; in test [2] it was -0.3; in test [3], -0.1; with H3K4me3 (mouse) [4], 0.14; in test [5] it was 0.32; in test [6] it was 0.2.

Values taken from patent US20260266833A1.
